Article PMC4703388, “Conformational Sampling and Binding Site Assessment of Suppression of Tumorigenicity 2 Ectodomain” (PLoS ONE, 2016)
Read-outs that look alike come from different tables or passages of the source.

B1: IL-33 (residues 112-270) (ligand, UniProt O95760 112-270, looked up)
chain: SITGISPITEYLASLSTYNDQSITFALEDESYEIYVEDLKKDEKKDKVLLSYYESQHPSNESGDGVDGKMLMVTLSPTKDFWLHANNKEHSVELHKCEKPLPDQAFFVLHNMHSNCVSFECKTDPGVFIGVKDNHLALIKVDSSENLCTENILFKLSET
notes: Interleukin-33, residues 112-270; Used unlabelled as the analyte in BLI; source: E. coli Rosetta2 (DE3), purified (Ni-NTA, TEV cleavage, second Ni-NTA, Superdex 75); not shown: His6, N-terminal, cleaved

Key:
[1] = molecular target: IL-33 (Homo sapiens) (UniProt O95760); assay: ITC; conditions: cited from earlier work
[2] = molecular target: IL-1β (Homo sapiens) (UniProt P01584); conditions: cited from earlier work
IL-1β (Homo sapiens), sequence (P01584 117-269): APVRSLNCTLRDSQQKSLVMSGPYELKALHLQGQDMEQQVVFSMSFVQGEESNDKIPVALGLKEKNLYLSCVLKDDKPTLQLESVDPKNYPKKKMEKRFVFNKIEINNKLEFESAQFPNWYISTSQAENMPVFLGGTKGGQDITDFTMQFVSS

[3] = molecular target: IL-1α (Homo sapiens) (UniProt P01583); conditions: cited from earlier work
IL-1α (Homo sapiens), sequence (P01583 113-271): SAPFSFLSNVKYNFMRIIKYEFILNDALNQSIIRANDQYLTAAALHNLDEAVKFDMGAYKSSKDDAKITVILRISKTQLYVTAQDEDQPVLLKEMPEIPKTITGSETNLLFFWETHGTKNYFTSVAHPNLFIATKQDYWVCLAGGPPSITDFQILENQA

[4] = molecular target: IL-1Ra (Homo sapiens) (UniProt P18510); conditions: cited from earlier work
IL-1Ra (Homo sapiens), sequence (P18510 26-177): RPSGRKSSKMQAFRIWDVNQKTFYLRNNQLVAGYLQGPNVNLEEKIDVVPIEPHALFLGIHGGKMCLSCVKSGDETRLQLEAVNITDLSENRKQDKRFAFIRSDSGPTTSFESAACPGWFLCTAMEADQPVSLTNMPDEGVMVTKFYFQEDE

[5] = molecular target: IL-1β (Homo sapiens) (UniProt P01584); conditions: cited from earlier work; remark: listed apart in the source
[6] = molecular target: ST2 D1-D2 domain (sequence 19-206) (UniProt Q01638 19-206, biotinylated with Biotin-PEO4 linker (equimolar ratio)); assay: BLI; OctetRED96; biotinylated ST2 loaded on streptavidin sensors (20 ug/mL, 10 min), serial dilutions of IL-33 in solution; 25 C; 10 mM HEPES pH 7.5, 150 mM NaCl, 0.005% Tween 20, 100 uM EDTA; 1:1 binding model, KD calculated from kon and koff; conditions: both partners purified
[7] = molecular target: B1; assay: as above; conditions: both partners purified

ST2 ECD (from UniProt Q01638)
Kd [1]: 5 nM

IL-1R1 D1-D2 (from UniProt P14778)
Kd [2]: > 10000 nM | Kd [3]: 7000 nM | Kd [4]: 28 nM

IL-1R1 D1-D3 (from UniProt P14778)
Kd [5]: 2 nM

B1
Kd [6]: 65.1 nM | koff [6]: 0.215 s⁻¹ | kon [6]: 3.3e+06 M⁻¹ s⁻¹

B2: ST2 ectodomain, D1-D3 domains (sequence 19-323) (domain or fragment)
chain: KFSKQSWGLENEALIVRCPRQGKPSYTVDWYYSQTNKSIPTQERNRVFASGQLLKFLPAAVADSGIYTCIVRSPTFNRTGYANVTIYKKQSDCNVPDYLMYSTVSGSEKNSKIYCPTIDLYNWTAPLEWFKNCQALQGSRYRAHKSFLVIDNVMTEDAGDYTCKFIHNENGANYSVTATRSFTVKDEQGFSLFPVIGAPAQNEIKEVEIGKNANLTCSACFGKGTQFLAAVLWQLNGTKITDFGEPRIQQEEGQNQSFSNGLACLDMVLRIADVKEEDLLLQYDCLALNLHGLRRHTVRLSRKNP
modifications: biotinylated with Biotin-PEO4 linker (equimolar ratio)
Kd [7]: 2.23 nM | koff [7]: 0.00115 s⁻¹ | kon [7]: 516000 M⁻¹ s⁻¹
